Legend:
IL-6 mRNA [1] = assay: IL-6 mRNA expression by real-time PCR, bleomycin model, plasminogen combined with pirfenidone (Example 3); type: in vivo, mouse
Experimental: (§1) Male C57BL6 mice are administered intratracheal instillation of bleomycin sulphate (0.007 mg/mouse) at day 0. Human plasminogen was administered subcutaneously at day 10 and day 14, at a dose of either 6 mg/kg, 20 mg/kg, or 60 mg/kg. Animals were sacrificed at day 21. Collagen was quantified by histologic analysis using the staining Red sirus staining (Fluorescence) and analysed at a magnification of 400×. Collagen quantification was performed by segmentation with Image Pro Premier software, and using a sample of 20 fields located in the inflammatory lesions of the lungs. The quantity of collagen has been reported for the total surface of the regions containing inflammatory lesions. This method of quantification allows exclusion of the endogenous content of collagen that is normally contained in the tissue. […] CTGF, IL-6 and PAI-1 mRNA expressions were quantified by real-time PCR using mouse Taqman® Gene-Expression assay normalized to HPRT1 endogenous control (Student's t-test).
(§2) Pulmonary fibrosis in mice is induced by intratracheal instillation of the anticancer drug bleomycin into the mouse. […] Collagen was quantified by histologic analysis using the staining Red sirus staining (Fluorescence) and analysed as described in Example 2. IL-6 mRNA expression was quantified by real-time PCR using mouse Taqman® Gene-Expression assay normalized to HPRT1 endogenous control (Student's t-test).

[2] = test system: collagen in the inflammatory lesions of the lungs; assay: Collagen quantification in inflammatory lesions of the lungs, bleomycin model, plasminogen combined with pirfenidone (Example 3); type: in vivo, mouse; conditions: bleomycin-induced mice, day 28, FIG. 8
Experimental: as §1, §2

IL-6 mRNA [3] = assay: IL-6 mRNA expression by real-time PCR, bleomycin-induced pulmonary fibrosis mouse model (Example 2); type: in vivo; conditions: human plasminogen 6, 20 or 60 mg/kg subcutaneously at day 10 and day 14; bleomycin-induced mice; day 21; not dose-dependent; FIG. 6
From the text: (§3) Pulmonary fibrosis in mice is induced by intratracheal instillation of bleomycin into the mouse. Bleomycin is well-known anticancer drug. First, the bleomycin insult results in an acute inflammation as soon as day 1. Later at about day 10 to day 14, fibrotic events arise and create a chronic fibrotic condition. The bleomycin-induced mice is recognized as an animal model for pulmonary fibrosis. The evaluation of the activity of plasminogen is undertaken by treatment of the mice with plasminogen at appropriate time points. In the present study, plasminogen was administered at day 10 and day 14.
(§4) Male C57BL6 mice are administered intratracheal instillation of bleomycin sulphate (0.007 mg/mouse) at day 0. Human plasminogen was administered subcutaneously at day 10 and day 14, at a dose of either 6 mg/kg, 20 mg/kg, or 60 mg/kg. […] Collagen was quantified by histologic analysis using the staining Red sirus staining (Fluorescence) and analysed at a magnification of 400×. Collagen quantification was performed by segmentation with Image Pro Premier software, and using a sample of 20 fields located in the inflammatory lesions of the lungs. The quantity of collagen has been reported for the total surface of the regions containing inflammatory lesions. This method of quantification allows exclusion of the endogenous content of collagen that is normally contained in the tissue. […]

PAI-1 mRNA = PAI-1 mRNA expression by real-time PCR, bleomycin-induced pulmonary fibrosis mouse model (Example 2); type: in vivo; conditions: human plasminogen at all doses (6, 20, 60 mg/kg) subcutaneously at day 10 and day 14; bleomycin-induced mice; day 21; FIG. 7
From the text: as §3, §4

[4] = test system: collagen in the inflammatory lesions of the lungs; assay: Collagen quantification in inflammatory lesions of the lungs, bleomycin-induced pulmonary fibrosis mouse model (Example 2); type: in vivo; conditions: human plasminogen 60 mg/kg subcutaneously at day 10 and day 14; bleomycin-induced mice; measured at day 21; FIG. 4
From the text: as §3, §4

CTGF mRNA = CTGF mRNA expression by real-time PCR, bleomycin-induced pulmonary fibrosis mouse model (Example 2); type: in vivo; conditions: human plasminogen 6, 20 or 60 mg/kg subcutaneously at day 10 and day 14; bleomycin-induced mice; day 21; not dose-dependent; FIG. 5
From the text: as §3, §4

Cc1ccc(=O)n(-c2ccccc2)c1 [pirfenidone, reference compound]
IL-6 expression versus non-treated bleomycin-induced mice (IL-6 mRNA [1]; pirfenidone alone, 400 mg/kg oral once a day from day 7 to day 27, day 28, FIG. 9): not significantly different | fibrosis (collagen expression in the inflammatory lesions of the lungs) ([2]; pirfenidone alone, 400 mg/kg oral once a day from day 7 to day 27): efficient to reduce fibrosis

B1: plasminogen: Glu-plasminogen purified from pooled human plasma, purity above 95%; used in Example 2 (protein, UniProt P00747 20-810, looked up)
Plasminogen: EPLDDYVNTQGASLFSVTKKQLGAGSIEECAAKCEEDEEFTCRAFQYHSKEQQCVIMAENRKSSIIIRMRDVVLFEKKVYLSECKTGNGKNYRGTMSKTKNGITCQKWSSTSPHRPRFSPATHPSEGLEENYCRNPDNDPQGPWCYTTDPEKRYDYCDILECEEECMHCSGENYDGKISKTMSGLECQAWDSQSPHAHGYIPSKFPNKNLKKNYCRNPDRELRPWCFTTDPNKRWELCDIPRCTTPPPSSGPTYQCLKGTGENYRGNVAVTVSGHTCQHWSAQTPHTHNRTPENFPCKNLDENYCRNPDGKRAPWCHTTNSQVRWEYCKIPSCDSSPVSTEQLAPTAPPELTPVVQDCYHGDGQSYRGTSSTTTTGKKCQSWSSMTPHRHQKTPENYPNAGLTMNYCRNPDADKGPWCFTTDPSVRWEYCNLKKCSGTEASVVAPPPVVLLPDVETPSEEDCMFGNGKGYRGKRATTVTGTPCQDWAAQEPHRHSIFTPETNPRAGLEKNYCRNPDGDVGGPWCYTTNPRKLYDYCDVPQCAAPSFDCGKPQVEPKKCPGRVVGGCVAHPHSWPWQVSLRTRFGMHFCGGTLISPEWVLTAAHCLEKSPRPSSYKVILGAHQEVNLEPHVQEIEVSRLFLEPTRKDIALLKLSSPAVITDKVIPACLPSPNYVVADRTECFITGWGETQGTFGAGLLKEAQLPVIENKVCNRYEFLNGRVQSTELCAGHLAGGTDSCQGDSGGPLVCFEKDKYILQGVTSWGLGCARPNKPGVYVRVSRFVTWIEGVMRNN
IL-6 mRNA expression (IL-6 mRNA [1]; murine plasminogen alone, 6 mg/kg subcutaneously at days 7, 10, 13, 16, 19 and 23, bleomycin-induced mice, day 28, FIG. 9): inhibits IL-6 mRNA expression | fibrosis (collagen expression in the inflammatory lesions of the lungs) ([2]; murine plasminogen alone, 6 mg/kg subcutaneously at days 7, 10, 13, 16, 19 and 23): efficient to reduce fibrosis | IL-6 mRNA expression (IL-6 mRNA [3]): significantly reduced | PAI-1 mRNA expression (overexpression of PAI-1 in lungs) (PAI-1 mRNA): reduced | collagen expression in the inflammatory lesions [4]: significantly reduced | mRNA expression of CTGF (CTGF mRNA): significantly reduced
